Data from patent publication US20240156869A1 (published 2024).

Biological target: T1, HERV-E (CT-RCC8/9 by the listing's note) peptide on HLA-A*11 (human)
T1 peptide: ATFLGSLTWK
Assay: cytokine release
Experimental: To test whether A*11 expression conferred target recognition to these transduced cells, a co-culture experiment was performed. […] After 18 hours, the supernatant was collected and an ELSIA was performed on the supernatant for interferon-gamma (IFNγ).
To test whether A*02 expression conferred target recognition to these transduced cells, a co-culture experiment was performed. […] After 18 hours, the supernatant was collected, and an ELISA was performed on the supernatant for Interferon-gamma (IFNγ).

B1: HERV-E-TCR (TCR, V domains shown)
Valpha: GIQVEQSPPDLILQEGANSTLRCNFSDSVNNLQWFHQNPWGQLINLFYIPSGTKQNGRLSATTVATERYSLLYISSSQTTDSGVYFCAVRGGADGLTFGKGTHLIIQP
Vbeta: DTEVTQTPKHLVMGMTNKKSLKCEQHMGHRAMYWYKQKAKKPPELMFVYSYEKLSINESVPSRFSPECPNSSLLNLHLHALQPEDSALYLCASSPPNEKLFFGSGTQLSVL
- binding result: recognises
